Reference: PMC12714742, “A small periplasmic protein governs broad physiological adaptations in Vibrio cholerae via regulation of the DbfRS two-component system” (Nature Communications, 2025)

B1: DbfS sensory domain, DbfS^SD-6×His (residues 43 to 171) (domain or fragment)
chain: NLIHQYLLEDVQNQLQLSMDEITANLEANPQGQLTLTTRLADPRFTQPYSGLYWSATLGDQTLRSRSLWDRFLTEETHVHGTIYLGAKEESLIVLKRTVYLPEFSQPITITIGLDDAPLKATLQRVSKE
notes: DbfS, sensor histidine kinase of the DbfRS two-component system of Vibrio cholerae (gene vc_1639); periplasmic sensory domain, residues 43 to 171; The vector is pET-15b; also called unlabeled DbfS; VC_1639; source: E. coli BL21 (DE3), pET-15b, purified (Ni-NTA)
B2: DbfQ, processed (residues 32 to 135, excluding the secretion signal), 6×His tag cleaved (natural protein)
chain: DNKVRDWEQGSYREGTQIEIDEDQDDVYRAVQKGLIRPFAELYATVDQQLNGRLIKVELDEDDDEWIYELKLVYDNQVFRVEYNAATLELMSIRGRNVIRAIKK
modifications: in the MST experiments only: covalently labeled with an amine-reactive Red-NHS dye
notes: DbfQ, small periplasmic PepSY-domain protein of Vibrio cholerae (135-amino-acid precursor, gene vc_1637); processed form, residues 32 to 135 without the secretion signal; also called cleaved DbfQ; DbfQ (6×His tag-cleaved)

Assays:
[1] = target: B2; experiment: MST; titration to saturation for stoichiometry: DbfQ-NHS 100 nM, unlabeled DbfS 0 nM to 40,000 nM, 25 °C; details: both partners purified
[2] = target: B1; experiment: MST; Red-NHS-labeled DbfQ constant at 20 nM, unlabeled DbfS 0.49 nM to 16,105 nM; buffer M (20 mM MES, 100 mM NaCl, 10% glycerol) with 0.05% Tween 20, pH 7.5, 25 °C; 1:1 binding model (PALMIST); details: both partners purified

With B1 the “stoichiometry N” value [1] was 1.

B2 was tested, and the Kd [2] was 30 nM.
